The text below walks through data of US20120251580A1.

pIC50, pKd: −log10 of the molar value. Bounds are passed on as bounds.

Assay [1] deals with purified recombinant galectin-3 (gal3) (UniProt P17931). Nature of the assay: solid phase assay, inhibition of gal3 binding to asialofetuin.
Assay [2] addresses gal3 on the surface of B16 melanoma cells (murine) (UniProt P16110). The assay is described as follows: flow cytometry on B16 melanoma cells (unstained cells 214), control. (In general: In flow cytometry, cells or beads pass a laser one at a time.)
Assay [3] concerns the target gal3 on the surface of human PC3 and HUVEC cells (human) (UniProt P17931). The assay is described as follows: flow cytometry on HUVEC cells (unstained cells 97), control.
Assay [4] shares this target. The assay is described as follows: flow cytometry on PC3 cells (unstained cells 205), control.
Assay [5] concerns the target gal4. Nature of the assay: solid phase assay, inhibition of gal4 binding to plate-bound asialofetuin (competitor), anti-galectin antibody detection.
In assay [6] the target is purified recombinant galectin-3 (gal3) (UniProt P17931). The assay is described as follows: SPR (Biacore T200), derived from the dissociation rate. On the technique in general: SPR reads the build-up and loss of mass on a sensor chip optically.
Assay [7] shares this target. The assay is described as follows: solid phase assay, inhibition of gal3 binding to plate-bound asialofetuin (competitor).
For assay [8] the target is unchanged. The assay is described as follows: SPR (Biacore T200), biotinylated gal3 captured on SA chip, TFD100 0.312-10 nM, 1:1 binding model.
For assay [9], the target named is gal4. Nature of the assay: solid phase assay, inhibition of gal4 binding to asialofetuin.
Assay [10] addresses purified recombinant galectin-3 (gal3) (UniProt P17931). Nature of the assay: SPR (Biacore T200), biotinylated gal3 captured on SA chip, 1:1 binding model.
The target in assay [11] is prostate cancer patient serum-associated gal3 (human) (UniProt P17931). Nature of the assay: cell-based or functional assay.
The target of assay [12] is gal3 on the surface of B16 melanoma cells (murine) (UniProt P16110). The assay is described as follows: cell-based or functional assay.
The target of assay [13] is purified recombinant galectin-3 (gal3) (UniProt P17931). Nature of the assay: cell-based or functional assay.
The target of assay [14] is gal3 on the surface of human PC3 and HUVEC cells (human) (UniProt P17931). Nature of the assay: cell-based or functional assay.
Assay [15] deals with purified recombinant galectin-3 (gal3) (UniProt P17931). The assay is described as follows: solid phase assay, inhibition of gal3 binding to asialofetuin, molar basis.
The target of assay [16] is N-terminal of gal9 (gal9N). The assay is described as follows: solid phase assay, inhibition of gal9N binding to asialofetuin.
The target in assay [17] is N-terminal of gal9 (gal9N). The assay is described as follows: solid phase assay, inhibition of gal9N binding to plate-bound asialofetuin (competitor), anti-galectin antibody detection.

Chain of gal3 on the surface of human PC3 and HUVEC cells (human) (P17931 2-250): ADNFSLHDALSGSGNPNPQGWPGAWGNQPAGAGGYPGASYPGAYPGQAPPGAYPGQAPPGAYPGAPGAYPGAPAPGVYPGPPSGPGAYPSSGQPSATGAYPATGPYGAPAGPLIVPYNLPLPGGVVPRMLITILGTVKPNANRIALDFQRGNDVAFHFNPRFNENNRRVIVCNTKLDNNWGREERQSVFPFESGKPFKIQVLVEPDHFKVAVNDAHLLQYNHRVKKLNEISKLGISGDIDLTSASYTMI
Chain of purified recombinant galectin-3 (gal3) (P17931 whole entry): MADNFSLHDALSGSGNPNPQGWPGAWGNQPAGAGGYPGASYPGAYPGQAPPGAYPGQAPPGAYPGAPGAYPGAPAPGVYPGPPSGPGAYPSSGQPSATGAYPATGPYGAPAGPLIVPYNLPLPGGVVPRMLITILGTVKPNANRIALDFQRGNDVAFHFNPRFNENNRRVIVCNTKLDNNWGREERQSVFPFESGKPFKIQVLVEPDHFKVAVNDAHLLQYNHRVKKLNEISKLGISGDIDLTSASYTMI
Chain of gal3 on the surface of B16 melanoma cells (murine) (P16110 2-264): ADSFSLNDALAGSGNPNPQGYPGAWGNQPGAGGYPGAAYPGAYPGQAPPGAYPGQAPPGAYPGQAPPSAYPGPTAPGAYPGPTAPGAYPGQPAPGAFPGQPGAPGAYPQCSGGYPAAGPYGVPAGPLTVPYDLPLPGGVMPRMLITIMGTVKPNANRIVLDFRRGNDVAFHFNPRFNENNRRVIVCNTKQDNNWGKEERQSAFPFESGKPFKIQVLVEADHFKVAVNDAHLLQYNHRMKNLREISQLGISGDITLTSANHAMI
Chain of prostate cancer patient serum-associated gal3 (human) (P17931 2-250 limits assumed): as the sequence (P17931 2-250) above

O-glycosidase treated TFD100: the % inhibition – broadly, the drop in the measured response relative to a control, in per cent – at 6.2 nM in assay [1] was 45%.
Take “Fraction 5 (<3 kDa) of cod anti-freeze glycoproteins”: the RIA (relative inhibitory activity compared to lactose taken as 1) (relative to lactose = 1) in assay [1] is < 0.06.
With “Fraction 4 (<10 kDa, >3 kDa) of cod anti-freeze glycoproteins”, in [1], the IC50 (in general, the point on the concentration scale where inhibition reaches its midpoint) is 300 µg/mL and the RIA (relative inhibitory activity compared to lactose taken as 1) (relative to lactose = 1) worked out at 0.09.
In the case of “Fraction 2 (<50 kDa, >30 kDa) of cod anti-freeze glycoproteins”, in [1], the IC50 was determined as 27 µg/mL and the RIA (relative inhibitory activity compared to lactose taken as 1) (relative to lactose = 1) came out at 1.
For the substance “Fraction 3 (<30 kDa, >10 kDa) of cod anti-freeze glycoproteins”, in [1], the IC50 was 82 µg/mL and the RIA (relative inhibitory activity compared to lactose taken as 1) (relative to lactose = 1) was 0.33.
As for “Crude extract (crude anti-freeze glycoproteins of cod, A/F Protein)”, in [1], the IC50 is 108 µg/mL and the RIA (relative inhibitory activity compared to lactose taken as 1) (relative to lactose = 1) stood at 0.25.
Regarding “pre-immune IgG (protein A-Sepharose purified pre-immune rabbit serum) (antibody)”, the mean fluorescence unit (mfu) in [2] was determined as 1000 mfu; in [3], 95 mfu; in assay [4], 759 mfu.
For “Fraction 1 (>50 kDa) of cod anti-freeze glycoproteins”, in assay [1], the IC50 was found to be 2.5 µg/mL and the RIA (relative inhibitory activity compared to lactose taken as 1) (relative to lactose = 1) was found to be 10.5.
For “TFD100 (Thomsen-Friedenreich disaccharide-containing glycopeptide of approximately 100 kDa purified from Pacific cod, Gadus macrocephalus)”, the pIC50 – broadly, the IC50 on a negative log10 scale, so that one unit is a factor of ten – with gal4 [5] is 8.92. The half-life for the complex in assay [6] was 38.5 min. Also, the RIA (relative inhibitory activity compared to lactose taken as 1) (fold vs lactose) in [1] turned out to be 400000. In addition, the pIC50 in assay [7] is 9.60. Moreover, the negative-log Kd (pKd) (commonly the negative decadic logarithm of the Kd, by convention in mol/L) in assay [8] is 10.01. Moreover, the RIA (relative inhibitory activity compared to lactose taken as 1) (fold vs lactose) with gal4 [9] is 8.33e+06. Besides, in [10], the off-rate constant (koff) (commonly the first-order rate constant of dissociation) was 0.0003 s⁻¹ and the kon (usually the rate constant with which the complex forms) was 3.1e+06 M⁻¹ s⁻¹. The apoptosis of activated tumor-specific CD8+ cells with patient serum plus 3.5 nM TFD100 (87-93% with patient serum alone) in [11] came to 66 % apoptosis. The substance also showed an apoptosis of activated tumor specific CD8+ T cells on a B16 monolayer with 3.5 nM TFD100 (about 53% without) in assay [12] of 36 % apoptosis. For the same substance, in assay [13], the apoptosis of activated pmel CD8+ T cells with 5 µM recombinant gal3 plus 3.5 nM TFD100 (˜76% with gal3 alone, ˜61% CD8 alone) came out at 72 % apoptosis; the inhibition of gal3 (5 µM)-induced apoptosis of MOLT-4 cells by 3.5 nM TFD100 (annexin V binding) came to 34%; the inhibition of gal3 (5 µM)-induced apoptosis of human CD8+ T cells by 3.5 nM TFD100 stood at 77%; the inhibition of gal3 (5 µM)-mediated apoptosis of Jurkat cells by 3.5 nM TFD100 was 63%. Further, in assay [14], the inhibition of binding of calcein-labeled PC3 cells to HUVEC monolayer (PC3 pre-treated with 3.5 nM TFD100) was 33% and the inhibition of tumor-endothelial cell interactions (HUVEC monolayer pre-incubated with 3.5 nM TFD100) was determined as 45%. For the same substance, the fold activity in inhibiting gal3 binding compared to free TFD in assay [15] was determined as 800000 fold. Also, the RIA (relative inhibitory activity compared to lactose taken as 1) (fold vs lactose) in assay [16] came to 66700. The pIC50 in assay [17] is 8.82.
